Drawing on patent US20240335555A1 (BIOHAVEN THERAPEUTICS, published 2024), this text covers binding result, IC50 and EC50 for 3 molecules.

Assay [1] addresses T1, SARS-CoV-2 (COVID-19) S Protein RBD, His Tag (SARS-CoV-2, UniProt P0DTC2 319-537). The assay is described as follows: BLI (Octet), LCB1 binding to anchored Spike RBD. In general terms: Biolayer interferometry detects binding as a change in optical thickness at a sensor tip.
For assay [2], the target named is T2, SARS-CoV2 Spike-GFP protein on 293T cells (SARS-CoV-2, UniProt P0DTC2 14-1273).
T2 construct: whole, on cells
The assay is described as follows: flow cytometry on 293T cells expressing Spike-GFP, % gated read-out. (Flow cytometry measures light scatter and fluorescence of single cells or particles in a stream.)

The target of assay [3] is T1, SARS-CoV-2 (COVID-19) S Protein RBD, …. As to the kind of experiment: ELISA, Spike RBD anchored on plate. (In an ELISA, binding on a coated surface is turned into a signal by an enzyme label.)

A word on the IC50: it is the concentration needed to halve the response being measured. By EC50 is commonly meant the concentration needed to bring the measured effect to its halfway point. Low values mean greater potency, high ones weaker potency.

B1: I-24 (designed binder)
chain: DKEEILNKIYEIMRLLDELGNAEASMRVSDLILEFMKKGDERLLEEAERLLEEVERGGSEQKLISEEDLGSGGGGSLPETGGGGSGGSSHHHHHHHHHH
notes: also called P227; LCB1
Turning to B1, in assay [1], the binding result is “no binding”.

B2: I-26 (other)
peptide: DKEEILNKIYEIMRLLDELGNAEASMRVSDLILEFMKKGDERLLEEAERLLEEVERGGSEQKLISEEDLGSGGGGSLPET
notes: also called MATE agent I-26
On to B2, for which the IC50 in assay [2] was determined as 1.3 nM.

B3: I-27 (other)
peptide: NDDELLMLVTDLVAEALLFAKDEEIKKRVFTLFELADKAYKNNDRDTLSKVVSELKELLERLQSGGSEQKLISEEDLGSGGGGSLPET
notes: also called MATE agent I-27
In assay [3], B3 registered an EC50 of 4 nM.
